Test results from the DeepSol protein solubility set.

Experiment: soluble on expression in E. coli; label from the status in PepcDB or PDB records

Soluble on expression in E. coli, not soluble:
MGSDKIHHHHHHMFMPEAVNWNRPIKVGVSSCLLGEKVRYDGGHKHDHYITDVLGKFFTFVPVCPEVGCGMPVPREAMRLEGDPEHPRLVTNKTRIDKTEQMRAFCKQKVTELADEELCGFIFKKDSPSSGLFRVKVHNEGMPTRSGSGLFAAAVVKHFPLLPAEEEGRLNDAAIRENFIERIFCYRRWKDFLLDSPDLGHLVTFHARHKLLILAHSTSIYREMGSLVAHGKGMSWPELAQSYEALFMKALALHATVKKNTNVLTHIMGYFKRDLSPAEKEELLGVIKEYHDRLVPLIVPLTLLKHYVGKYGQSYLQQQYYLSPHPAELMLRNHV
MGSDKIHHHHHHMFRTNPLKIIMLGPSLLQQGGISGYEKLFLEYAPSEIHICHIITHEEGTIAFKIMVFLKAIWKFIWMLISEEIDIVQLEISQRGSVFRQSIMILLAWVFHKPIILHAHGSQFHIFYAGLANWIQKLLSWIFCKCQRLIVLSESWKSFYIDTLGLKSEQVVVFYNPVKVPTEVPSRSFSTKLNLLFLGRIGQRKGAFDLIKAFSSLPTEYQTRSIMVMAGDGDIEKARDLVTTLNLQDYIQLPGWIGSDERDILLSKADIFVLPSYNEGLPLAMLEAMAWELPVIVTPVGGIPEIVTQSENGLIVNPGNVEQLSNAIKSLIENEALRLSLGAKARTSVFPLDIKKHWVDFIDLYNLVLNTMEEHSKG
MGSDKIHHHHHHMGCGVTVANASVYALPVRGNIVGALEAVTTHRDDTLLDIGRFYDLGYNQVTAANPGVNPWLPGQASKVVIPAEYILPPKPWTGIIVDIPARRIYYFPVNDRVVYTYPVGVFLPGWKEALTDTRIIAKFKMPAWNVPKNIHAWFEKKFHMDIPWYWPPGPENPMGELAMETGLSGIFIHGTYHPWGVGMRASQGCFQMFPENVAQLFPMVPVGTPVRIIDQPNLVGVRDGQVYLQSYKPMHAYHKKGIPELQRAVVTIKSFMERNRIEERIDWGMVRRIVTEHNTVALPIGVGAPSYATLSAALPATPYAYAPYGPSANGAAVPPPLPLASAADQEHLHVQVTFPDQKP
MGSDKIHHHHHHMGEEIAISLKNVSKCFKRYSRPVDRLKEVLLPGKSRTDEFWALRDINIEIPKGQTVGIVGRNGSGKSTLLQIIVGTLTPSSGDVRVVGRVSALLELGSGFNPEFTGRQNVFFNGQLLGLSQKQIEDRFDDIVAFADIGDFIEQPVKTYSSGMYVRLAFSVAVNVDPEILIVDEALAVGDVVFQHRCMRRMRAMMDSGVTTLFVSHDSGAIKTLCNSAVMIHDGKIHTTGLPNTVIIEYLKLVTELELGLAQDITVNSQQQVNPVVDNAIQASDSPNFDIESPSSNFSKATRRGSGKARIESVKILNQLGHYAGESPIFAFNEEVTLIVNLKVYYTIKSCIVGFHVCDKNGNEVIGSNTLEENIKIDKLESGEEIEIKFKFNLPLRPSSYSLTVAGAESYESLSFDWIDNIMVFQILPPDTGKLIHALVHQPMVVKVNKKVLPTVVTPA
MGSDKIHHHHHHMGFWHSMSWKTEGIRVTAPVQWRQYDGMVSVLWEAESQAGASGYYLADDPRIMFFFNDVSSSVRISNQDNDLARNSRPMARAVYVPAGVPLWTGSRKTHSFSHLNLHLHKDRVLRFLAPSVGNSAAQTALRCPVELQNVAAIDALAKLLADEIKSPTKHAVYAESLIGSIIAGLLDIPTEREERAGGRLTQAQINKLVSHIDALGDYRMSVADMAAVVGLSESWFASVFKQTMGITPLQWQLAKRVELTKKLLGESDLPVASIAAQLGFADQAHLTKVFRQIVGETPAAWRRMRQFRQS
MGSDKIHHHHHHMGIDIKHEESSLVGLLTYIGRLKDEQFDYVIDLHNVIRSKIIRFYLRFFGVKGFSLKKPRLQLRQLTAKPPKKPTRLPSVIERYAQVFHKAGLEIHPPYPILLNDSGHISTELPIVEIGSGHHLIGIAPFAGHEAKTYPPEKMHEVVRTLAERDDVQIFLFGGKGKEKNILEQWADESPRIVSVAGLLSLPEELSLIHALRCMVSMDSANMHFASLVGTRVISIWCATHPAAGFLGYGQRIEDCIGADLDCRPCSVFGNKPCFRKDYACRTQIEPQLIINKIVSTLTDLNSDETEN
MGSDKIHHHHHHMGKFLKKHYIMAPGPTPVPNDILTEGAKETIHHRTPQFVSIMEETLESAKYIFQTKHNVYAFASTGTGAMEAAVANLVSPGDKVIVVVAGKFGERWRELCQAYGADIVEIALEWGDAVTPEQIEEALNKNPDAKVVFTTYSETSTGTVIDLEGIARVTKEKDVVLVTDAVSALGAEPLKMDEWGVDLVVTGSQKGLMLPPGLALISLNDKAWGLVEKSRSPRYYFDLRAYRKSYPDNPYTPAVNMIYMLRKALQMIKEEGIENVWERHRILGDATRAAVKALGLELLSKRPGNVVTAVKVPEGIDGKQIPKIMRDKYGVTIAGGQAKLKGKIFRIAHLGYMSPFDTITAISALELTLKELGYEFELGVGVKAAEAVFAKEFIGE
MGSDKIHHHHHHMGKKNYGKSVKTRLLNLMNETGYKYMYLLARYFNERLLYRVSVSQYKDNFLLKGGSLLYAMNGLEARPTVDVDFMADRISRDRDFLARVFQEILGIVCDEDGVSFDAGSIKIEPITVEKKYPGTRFYFTAHMDTIAYNMSVDIGFGDVVIPHPTTIDFPLLLPDIPSVNIQAYSLETVIAEKFHTMIDRDVLNSRMKDFFDCYQLLTKRNLNDDALYDAIEATFDNRGLAYNPDLQLFTDSFATDRARISRWKAFLRKIQWKEALDFDTVMKAIRDRLQPMAEKYWIKLSK
MGSDKIHHHHHHMGKSFYRFRSTNNLLDGYSELEKQTIYFARPEQLNDPMEGYRDIYWRGDLIAWKNLFAHYVFCLERISSLLLISGEDNKIDADHIPVFGSTDDLPTDSYKNLFRKIKARFLENKYVSALILAISKRSTPIRREELAFYYDCMHIPALKLIFDVYIEENLSQEGNRIDDKAFAGISGVVSNDFVGLLEKSITDGEADQVIVNELFKAKSHIKQQSNLIHKHNGTISSSKPNKNLLMIDFPSLYLNRLEEITFPKWYTSCFMSECKNSSVWGHYGNNHTGMCLIFDSENINDRSYIKLNGITGWGSSGPIYGDKAMEFHPIDYKKGFGEIDFFTSIGSLPIPVLNTMWYMDEAGNTSVCANKMNVDEDAWRSNYWSNFIRGLTVKSKDWEYENEYRLILHSSITDLSEKDRRTLTYDFSSLKGIIFGINTKEEDKLKTIKIIEDKCNKHSRSDFKFYQAYYCADENCIKSVEMSLVKFSGNV
MGSDKIHHHHHHMGKVADTLKPGDRVLLSFEDESEFLVDLEKDKKLHTHLGIIDLNEVFEKGPGEIIRTSAGKKGYILIPSLIDEIMNMKRRTQIVYPKDSSFIAMMLDVKEGDRIIDTGVGSGAMCAVLARAVGSSGKVFAYEKREEFAKLAESNLTKWGLIERVTIKVRDISEGFDEKDVDALFLDVPDPWNYIDKCWEALKGGGRFATVCPTTNQVQETLKKLQELPFIRIEVWESLFRPYKPVPERLRPVDRMVAHTAYMIFATKVCRREETE
MGSDKIHHHHHHMGKVNYAAIDIGSNAVRLLIKSIDREAVQEKKIKKVMMLRVPLRLGFDVFSIGELSEKKADKLRRLMKAFRQLMKIYDVDDYRACATSAMRDARNGRTIIKKIEKDTGIRIEIIDGQEEARMIYNNHIECMEDRLGNYMYVDVGGGSTEINLLTNGELVWSVSYNIGTVRMLSNAVKEGTWQQMEEELMKVTEGVAAINIIGSGGNINKLFRLADKKDKKLQRLPVSSLQTVYDVLKPLTPEERVEAFSLKQDRADVIVPAAEIFLKIAEVVHAEYIYVPVIGLSDGIIDNLYAKSLEKEMKVE
MGSDKIHHHHHHMGQGTDSMSKRGRVYIIGAGPGDPGLMTVKGTKCLAEADVVIYDHLINPGILHHARETARLVYAGKEGGKHTLSQEEINARLVSEAQQGHVVARLKGGDPFIFGRGGEEAEVLAREGIPFEIVPGVTSAIAVASYAGIPLTHRRHTATLAFVTGHEDPLKGQSEIDWKALAGIGTLVFLMGVRNLSRIAAGLIAQGKKPETPAALIRWGTTANQETLVGTLENIADLAEAAGFAPPAILVVGGVVGLRKELNWFETRPLFGKGIVITRPESQAESLAALLEDAGARVISFPTIQIVAPESWEGLDSAIRRLEDYAWLIFTSANGVRFFLERLYVTGKDVRDLKGIRLCTIGPATAAALENRGLRVDLVPETYLSEGVVAAFERVAISGQRILLPRAEKARDVIPEGLTRQGAVVDVVSAYRTVNSGRDRSELVELIAQRRVDVLTFTSPSTVTNFLEIMGPDFLPLPAGIRVACIGPVTAAAAEKAGLPVDILQEIYTIPGLVESLKVFLAKDKPH
MGSDKIHHHHHHMGQRIPVTLGNIAPLSLRPFQPGRIALVCEGGGQRGIFTAGVLDEFMRAQFNPFDLYLGTSAGAQNLSAFICNQPGYARKVIMRYTTKREFFDPLRFVRGGNLIDLDWLVEATASQMPLQMDTAARLFDSGKSFYMCACRQDDYAPNYFLPTKQNWLDVIRASSAIPGFYRSGVSLEGINYLDGGISDAIPVKEAARQGAKTLVVIRTVPSQMYYTPQWFKRMERWLGDSSLQPLVNLVQHHETSYRDIQQFIEKPPGKLRISEIYPPKPLHSIALGSRIPALREDYKLGRLCGRYFLATVGKLLTEKAPLTRHLVPVVTPESIVIPPAPVANDTLVAEVSDAPQANDPTFNNEDLA
MGSDKIHHHHHHMGYAMRLALIDGEHYPDVNRWALEKLKVDCAVFVGGMEKIGSIRDVERTLSIKLYYDEDIFKALERAIEENEIREVIDLSDEPVLTPEIRFRIASFLLKRGITYIGADFEFKPKEWIKIDVPSINIIGTGKRIGKTAIGGFVGRTLKEEYKVVIVTMGRGGPESPEVIRGDLMEITPEFLVEVSEKGRHAASDHFEDALTAGVATVGCRRCGGGLAGFTFLDVLQKGIEVAKSLNPEIIVFEGSGASFANVLSEGFITVVSALQGKEIKMYLYPLRISLGDLIVVTMADEVKDPGKISSLIKEINPDADIHLTRFSPRLIGNVEGKAVVVTTSTNSAKRVTKELEDRGIDVVGFSGNLANRVKLREELKKVSYDTLIVELKAGAVDVAIKSALRSGKRIVFLDYEPKNIDDKDLRESVKELARRIVNDKGHRKGR
MGSDKIHHHHHHMHDFLQFWLNEFSRSENPQHVNSVLTRAAATLGYEYAAYGMRRPFPISNPQILMVSNYPDRWQERYIEARFANVDSAVKAALGSDRPVTWSASTNASKSAFWAEALSFGIAHGWSSASRGADGTIGVLSLSRRQDAIDTAEKFRNESIVHWLANVAHASMAPFLPAADEFDPDLTRRETDVLKWTADGKTAYEIALILSISESTVNFHVKNIVSKLGSTNKIQAVAKAALMGML
MGSDKIHHHHHHMHEPVTRILVVATNAPVPGLVAAVKQGFHQRVDYLELAERFDNRHVDYGIVRPNRMLERLEGITRFDLRLASQVNQIVRSARYQAVISLSERVGIPLALMLPQTVRHLVIFHHGMSARKLQLIRTLHLQHRWDIVAAISEAEAKGMRQALGLPAERVVALHTPVDTAFYQPQPGRQQASVVQSLGLSHRDYPTLIRAMRRLPHIPCHLRVGSSWISGRSGHEREVLPANISLQPFVPPVQLRTCYQQSRIVVVPIKASTQWSAGCTSVQAAQAMGRPVIATRRPGLAEYVDEGRTALLVEPGDADGMADAIATLWENPDRAERMGQAGRQLMEERFTIEQWLDRVVELTHKMMDWPARRSTSTMTGSAV
MGSDKIHHHHHHMHIDIDWQNVDTVLLDMDGTLLDLAFDNYFWQKLVPETYGAQQGISPQDAQEYIRQQYHAVQHTLNWYCLDYWSERLGLDICAMTTAQGPRAVLRDDTVPFLNALKASGKRRILLTNAHPHNLAVKLEHTGLASHLDLLLSTHTFGYPKEDQRLWRAVTEETGISAEKTLFIDDSEPILDAAARFGIRYCLGVTNPDSGLAEKHYTRHPSLNDYRRLIPSLM
